In US20110182817A1 (NATIONAL UNIVERSITY CORPORATION OKAYAMA UNIVERSITY, published 2011):

B1: CL56-369 (antibody, IgM, V domains shown)
VH: QVQLQQPGAELVKPGASVKLSCKASGYTFTSYWMHWVKQRPGQGLEWIGEIDPSDSYTNYNQKFKGKATLTVDKSSSTAYMQLSSLTSEDSAVYYCARGDMDAMDYWGQGTSVTVSS
VL: ETTVTQSPASLSMAIGEKVTIRCITSTDIDDDMNWYQQKPGEPPKLLISEGNTLRPGVPSRFSSSGYGTDFVFTIENMLSEDVADYYCLQSDNLPLTFGAGTKLELK
notes: Mouse monoclonal IgM, kappa, from mice immunized with arteriosclerotic plaque homogenate
B2: CL48-139 (antibody, IgM, V domains shown)
VH: EGQLQQSGAEVVKPGASVKLSCTASGFNIKDTYIHWVKQRPEQGLEWIGRIDPTNGNTKYDPEFQGKATITADTSSNTAYLHLSGLTSEDTAVYYCAKGTLFAYWGQGTLVTVSA
VL: DIKMTQSPSSMYASLGERVTFTCKASQDINNYLTWVQQKPGKSPKTLIYRANRLVDGVPSRFSGSGSGQDYSLTISSLEYEDMGIYYCLQYDEFPPTFGGGTKLEIK
notes: as for B1

Target: T1, human LDL oxidatively modified by copper sulfate (human, UniProt P04114 28-4563, limits assumed, oxidatively modified by copper sulfate)
T1 construct: Lipoprotein particle; also called oxidized LDL
T1 sequence (P04114 28-4563 limits assumed): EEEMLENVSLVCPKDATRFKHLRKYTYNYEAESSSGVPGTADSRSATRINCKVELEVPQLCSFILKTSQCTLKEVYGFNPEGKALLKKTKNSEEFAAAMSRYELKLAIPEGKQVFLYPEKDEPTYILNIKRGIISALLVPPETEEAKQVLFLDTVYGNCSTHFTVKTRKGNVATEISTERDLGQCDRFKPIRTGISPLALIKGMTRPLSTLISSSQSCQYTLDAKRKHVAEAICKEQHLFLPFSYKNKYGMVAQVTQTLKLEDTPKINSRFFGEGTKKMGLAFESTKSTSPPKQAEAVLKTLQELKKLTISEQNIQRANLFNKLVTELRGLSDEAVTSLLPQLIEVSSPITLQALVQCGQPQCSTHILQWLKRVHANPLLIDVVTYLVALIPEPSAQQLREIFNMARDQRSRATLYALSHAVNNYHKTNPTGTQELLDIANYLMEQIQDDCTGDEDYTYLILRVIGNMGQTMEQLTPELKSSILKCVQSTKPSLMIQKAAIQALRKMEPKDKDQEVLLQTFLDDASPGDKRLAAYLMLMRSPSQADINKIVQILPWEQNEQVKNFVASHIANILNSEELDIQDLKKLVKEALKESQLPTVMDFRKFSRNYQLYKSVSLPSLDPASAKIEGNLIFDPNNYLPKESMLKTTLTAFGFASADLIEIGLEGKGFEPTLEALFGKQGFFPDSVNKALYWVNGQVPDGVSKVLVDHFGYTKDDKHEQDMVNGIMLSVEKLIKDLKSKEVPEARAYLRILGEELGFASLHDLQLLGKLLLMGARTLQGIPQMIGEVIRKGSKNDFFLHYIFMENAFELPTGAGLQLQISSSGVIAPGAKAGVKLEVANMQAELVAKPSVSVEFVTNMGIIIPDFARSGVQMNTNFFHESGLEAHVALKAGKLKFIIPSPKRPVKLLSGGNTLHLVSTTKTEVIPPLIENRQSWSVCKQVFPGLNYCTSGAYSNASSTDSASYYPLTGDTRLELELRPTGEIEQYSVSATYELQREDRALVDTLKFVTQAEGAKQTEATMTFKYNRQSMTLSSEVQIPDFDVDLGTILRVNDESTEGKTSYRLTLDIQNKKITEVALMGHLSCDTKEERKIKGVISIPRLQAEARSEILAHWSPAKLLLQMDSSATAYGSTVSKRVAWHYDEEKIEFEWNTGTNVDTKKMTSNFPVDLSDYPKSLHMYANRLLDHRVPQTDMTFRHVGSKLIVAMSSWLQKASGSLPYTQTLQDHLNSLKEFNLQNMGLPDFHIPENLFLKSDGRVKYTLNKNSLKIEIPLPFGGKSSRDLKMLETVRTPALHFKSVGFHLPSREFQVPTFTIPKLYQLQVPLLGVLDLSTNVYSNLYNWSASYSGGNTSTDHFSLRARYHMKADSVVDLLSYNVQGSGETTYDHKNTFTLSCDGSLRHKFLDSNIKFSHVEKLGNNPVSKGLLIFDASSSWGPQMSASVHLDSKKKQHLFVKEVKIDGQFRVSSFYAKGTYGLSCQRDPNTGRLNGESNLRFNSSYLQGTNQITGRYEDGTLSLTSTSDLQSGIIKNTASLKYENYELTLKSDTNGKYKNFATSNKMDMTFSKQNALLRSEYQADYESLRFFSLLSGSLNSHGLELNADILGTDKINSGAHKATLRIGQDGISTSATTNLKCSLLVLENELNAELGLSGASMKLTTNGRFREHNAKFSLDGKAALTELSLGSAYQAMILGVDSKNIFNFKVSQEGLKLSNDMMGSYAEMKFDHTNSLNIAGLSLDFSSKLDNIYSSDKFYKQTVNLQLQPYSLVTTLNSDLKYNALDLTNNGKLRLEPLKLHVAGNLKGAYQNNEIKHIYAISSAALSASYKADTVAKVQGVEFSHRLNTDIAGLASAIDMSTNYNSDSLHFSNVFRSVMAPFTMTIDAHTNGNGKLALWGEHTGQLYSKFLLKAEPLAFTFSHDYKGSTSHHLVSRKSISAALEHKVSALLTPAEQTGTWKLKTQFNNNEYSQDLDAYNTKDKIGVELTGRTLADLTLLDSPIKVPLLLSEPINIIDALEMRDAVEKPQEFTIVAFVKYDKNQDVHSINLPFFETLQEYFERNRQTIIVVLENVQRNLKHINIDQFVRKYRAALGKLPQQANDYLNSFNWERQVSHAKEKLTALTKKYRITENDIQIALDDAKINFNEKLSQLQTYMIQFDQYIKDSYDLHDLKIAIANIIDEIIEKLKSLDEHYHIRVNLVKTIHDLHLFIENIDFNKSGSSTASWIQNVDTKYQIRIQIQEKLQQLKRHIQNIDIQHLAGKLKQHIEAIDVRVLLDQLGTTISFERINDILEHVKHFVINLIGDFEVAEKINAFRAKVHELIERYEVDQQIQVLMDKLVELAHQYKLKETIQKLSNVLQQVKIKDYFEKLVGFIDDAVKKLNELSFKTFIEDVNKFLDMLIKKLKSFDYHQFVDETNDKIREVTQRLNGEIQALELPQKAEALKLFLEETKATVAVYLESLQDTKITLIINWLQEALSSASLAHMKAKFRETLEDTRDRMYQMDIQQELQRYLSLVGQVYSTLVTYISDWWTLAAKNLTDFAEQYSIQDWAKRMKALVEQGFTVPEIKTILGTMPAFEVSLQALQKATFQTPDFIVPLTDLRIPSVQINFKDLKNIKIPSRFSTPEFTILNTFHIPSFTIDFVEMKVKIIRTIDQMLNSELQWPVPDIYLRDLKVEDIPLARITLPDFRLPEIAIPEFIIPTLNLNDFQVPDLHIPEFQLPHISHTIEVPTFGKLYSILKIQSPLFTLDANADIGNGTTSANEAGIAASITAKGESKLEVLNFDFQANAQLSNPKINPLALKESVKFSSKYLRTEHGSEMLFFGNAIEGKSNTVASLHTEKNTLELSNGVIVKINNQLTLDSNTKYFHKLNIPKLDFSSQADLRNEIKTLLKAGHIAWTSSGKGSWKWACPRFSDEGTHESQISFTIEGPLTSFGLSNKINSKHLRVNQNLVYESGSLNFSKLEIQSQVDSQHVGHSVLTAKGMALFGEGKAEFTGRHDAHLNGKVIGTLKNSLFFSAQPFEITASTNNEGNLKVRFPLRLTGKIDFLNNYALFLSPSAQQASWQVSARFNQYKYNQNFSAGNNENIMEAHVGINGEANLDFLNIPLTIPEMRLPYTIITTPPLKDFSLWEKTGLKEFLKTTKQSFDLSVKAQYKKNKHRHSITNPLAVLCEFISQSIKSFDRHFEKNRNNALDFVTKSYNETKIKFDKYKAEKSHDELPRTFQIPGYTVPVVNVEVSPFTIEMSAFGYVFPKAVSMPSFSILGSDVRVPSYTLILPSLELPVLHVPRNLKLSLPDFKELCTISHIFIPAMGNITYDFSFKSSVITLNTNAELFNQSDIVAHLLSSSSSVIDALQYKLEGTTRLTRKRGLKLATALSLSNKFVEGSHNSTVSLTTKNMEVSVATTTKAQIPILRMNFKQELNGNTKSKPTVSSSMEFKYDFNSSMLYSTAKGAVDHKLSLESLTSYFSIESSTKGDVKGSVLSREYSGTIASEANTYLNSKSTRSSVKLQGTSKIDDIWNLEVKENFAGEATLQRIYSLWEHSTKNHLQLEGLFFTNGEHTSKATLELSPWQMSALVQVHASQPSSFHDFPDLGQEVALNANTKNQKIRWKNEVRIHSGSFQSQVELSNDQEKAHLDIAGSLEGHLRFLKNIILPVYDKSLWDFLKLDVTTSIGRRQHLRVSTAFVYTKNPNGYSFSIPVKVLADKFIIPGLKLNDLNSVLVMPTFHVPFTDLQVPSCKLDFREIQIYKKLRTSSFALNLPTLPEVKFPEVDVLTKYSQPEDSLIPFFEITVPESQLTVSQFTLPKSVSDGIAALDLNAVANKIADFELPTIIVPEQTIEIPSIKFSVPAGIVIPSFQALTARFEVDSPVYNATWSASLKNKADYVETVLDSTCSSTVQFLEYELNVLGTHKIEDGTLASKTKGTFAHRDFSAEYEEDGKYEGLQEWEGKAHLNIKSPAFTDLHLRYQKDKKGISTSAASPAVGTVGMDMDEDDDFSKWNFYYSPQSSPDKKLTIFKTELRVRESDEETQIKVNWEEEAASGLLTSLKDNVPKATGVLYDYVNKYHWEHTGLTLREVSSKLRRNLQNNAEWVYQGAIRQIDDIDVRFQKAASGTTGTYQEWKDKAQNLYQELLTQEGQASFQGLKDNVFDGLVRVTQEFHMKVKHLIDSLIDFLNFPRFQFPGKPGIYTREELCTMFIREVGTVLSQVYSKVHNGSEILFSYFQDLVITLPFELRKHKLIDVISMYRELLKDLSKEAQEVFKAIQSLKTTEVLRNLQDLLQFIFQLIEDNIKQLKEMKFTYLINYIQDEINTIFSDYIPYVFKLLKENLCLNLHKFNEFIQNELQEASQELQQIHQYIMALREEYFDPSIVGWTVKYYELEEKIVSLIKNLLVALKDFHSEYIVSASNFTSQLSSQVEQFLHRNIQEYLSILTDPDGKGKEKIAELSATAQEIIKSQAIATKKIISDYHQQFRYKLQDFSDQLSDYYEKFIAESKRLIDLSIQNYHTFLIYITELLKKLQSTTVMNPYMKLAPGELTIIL
Test: ELISA on immobilized Cu-oxidized human LDL, anti-mouse IgM-HRP
Procedure: 50 μl of […] human LDL oxidatively modified by copper sulfate was added to each well of 96-well microtiter plates (Immulon-2), and incubated at 4° C. overnight. After washing with PBS-Tween, the plates were blocked with 0.5% BSA-PBS. Test samples (culture supernatants appropriately diluted with PBS containing 0.1% BSA) were incubated in the plates at room temperature for one hour. After the plates were washed three times with PBS-Tween, an HRP-labeled anti-mouse IgM antibody was incubated in the plates at room temperature for one hour. After the plates were washed three times with PBS-Tween, 0.03% H₂O₂ and 0.1 M citrate buffer […] containing 0.4 mg/ml orthophenylenediamine (OPD) were added to the plates. After ten minutes of incubation, the reaction was stopped by adding an equal volume of 2N H₂SO₄. Absorbance was measured at 490 nm (FIG. 2). FIG. 2 is a graph showing the reactivities of monoclonal antibodies to NLO and oxidized LDL. The monoclonal antibodies were produced by hybridomas of the established five clones.

Binder | binding result
B1 | no binding
B2 | no binding
